In US20040248211A1, “ICAM-related protein” (priority 1992, published 2004):
Residue numbers refer to the chain shown, from its start.

T1: baculovirus-produced soluble human ICAM-R (Homo sapiens, UniProt P32942)
T1 sequence (P32942 30-485 limits assumed): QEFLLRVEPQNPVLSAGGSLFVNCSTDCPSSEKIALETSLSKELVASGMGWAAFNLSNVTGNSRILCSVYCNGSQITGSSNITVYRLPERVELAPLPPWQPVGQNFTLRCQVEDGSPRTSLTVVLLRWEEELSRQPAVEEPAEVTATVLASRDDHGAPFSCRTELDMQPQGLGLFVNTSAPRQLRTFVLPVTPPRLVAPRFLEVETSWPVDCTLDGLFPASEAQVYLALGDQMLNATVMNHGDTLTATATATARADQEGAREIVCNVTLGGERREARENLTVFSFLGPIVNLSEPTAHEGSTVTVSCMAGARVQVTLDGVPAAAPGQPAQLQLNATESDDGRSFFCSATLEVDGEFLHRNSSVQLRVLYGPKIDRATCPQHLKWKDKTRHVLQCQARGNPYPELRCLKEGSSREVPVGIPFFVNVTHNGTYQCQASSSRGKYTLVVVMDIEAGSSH

B1: Tyr479Phe: ICAM-R cytoplasmic domain point mutant (protein, UniProt P32942 30-547, looked up, variant Y479F)
Intercellular adhesion …: QEFLLRVEPQNPVLSAGGSLFVNCSTDCPSSEKIALETSLSKELVASGMGWAAFNLSNVTGNSRILCSVYCNGSQITGSSNITVYRLPERVELAPLPPWQPVGQNFTLRCQVEDGSPRTSLTVVLLRWEEELSRQPAVEEPAEVTATVLASRDDHGAPFSCRTELDMQPQGLGLFVNTSAPRQLRTFVLPVTPPRLVAPRFLEVETSWPVDCTLDGLFPASEAQVYLALGDQMLNATVMNHGDTLTATATATARADQEGAREIVCNVTLGGERREARENLTVFSFLGPIVNLSEPTAHEGSTVTVSCMAGARVQVTLDGVPAAAPGQPAQLQLNATESDDGRSFFCSATLEVDGEFLHRNSSVQLRVLYGPKIDRATCPQHLKWKDKTRHVLQCQARGNPYPELRCLKEGSSREVPVGIPFFVNVTHNGTYQCQASSSRGKYTLVVVMDIEAGSSHFVPVFVAVLLTLGVVTIVLALMFVFREHQRSGSYHVREESTYLPLTSMQPTEAMGEEPSRAE
B2: Ser487Ala: ICAM-R cytoplasmic domain point mutant (protein, UniProt P32942 30-547, looked up, variant S487A)
Intercellular adhesion …: B1 Intercellular adhesion … with F479Y, S487A
B3: Tyr498Phe: ICAM-R cytoplasmic domain point mutant (protein, UniProt P32942 30-547, looked up, variant Y498F)
Intercellular adhesion …: B1 Intercellular adhesion … with F479Y, Y498F
B4: Ser496Ala: ICAM-R cytoplasmic domain point mutant (protein, UniProt P32942 30-547, looked up, variant S496A)
Intercellular adhesion …: B1 Intercellular adhesion … with F479Y, S496A
B5: Ser503Ala: ICAM-R cytoplasmic domain point mutant (protein, UniProt P32942 30-547, looked up, variant S503A)
Intercellular adhesion …: B1 Intercellular adhesion … with F479Y, S503A
B6: Leu499Ala: ICAM-R cytoplasmic domain point mutant (protein, UniProt P32942 30-547, looked up, variant L499A)
Intercellular adhesion …: B1 Intercellular adhesion … with F479Y, L499A
B7: Tyr490Phe: ICAM-R cytoplasmic domain point mutant (protein, UniProt P32942 30-547, looked up, variant Y490F)
Intercellular adhesion …: B1 Intercellular adhesion … with F479Y, Y490F
B8: Ser515Ala: ICAM-R cytoplasmic domain point mutant (protein, UniProt P32942 30-547, looked up, variant S515A)
Intercellular adhesion …: B1 Intercellular adhesion … with F479Y, S515A
B9: Ser489Ala: ICAM-R cytoplasmic domain point mutant (protein, UniProt P32942 30-547, looked up, variant S489A)
Intercellular adhesion …: B1 Intercellular adhesion … with F479Y, S489A
B10: haFL: HA-tagged full length ICAM-R expressed in J77.50.3 cells (protein, UniProt P32942 1-547, looked up)
chain: MATMVPSVLWPRACWTLLVCCLLTPGVQGQEFLLRVEPQNPVLSAGGSLFVNCSTDCPSSEKIALETSLSKELVASGMGWAAFNLSNVTGNSRILCSVYCNGSQITGSSNITVYRLPERVELAPLPPWQPVGQNFTLRCQVEDGSPRTSLTVVLLRWEEELSRQPAVEEPAEVTATVLASRDDHGAPFSCRTELDMQPQGLGLFVNTSAPRQLRTFVLPVTPPRLVAPRFLEVETSWPVDCTLDGLFPASEAQVYLALGDQMLNATVMNHGDTLTATATATARADQEGAREIVCNVTLGGERREARENLTVFSFLGPIVNLSEPTAHEGSTVTVSCMAGARVQVTLDGVPAAAPGQPAQLQLNATESDDGRSFFCSATLEVDGEFLHRNSSVQLRVLYGPKIDRATCPQHLKWKDKTRHVLQCQARGNPYPELRCLKEGSSREVPVGIPFFVNVTHNGTYQCQASSSRGKYTLVVVMDIEAGSSHFVPVFVAVLLTLGVVTIVLALMYVFREHQRSGSYHVREESTYLPLTSMQPTEAMGEEPSRAE
modifications: full-length HA tag
notes: HA-tagged full length ICAM-R expressed in J77.50.3 cells
B11: MuVHVS/MuVK: chimeric ICR-8.1: murine VH with Val2, Ser7 and murine VK, human IgG4/kappa constant regions (antibody, V domains shown)
VH: EVQLQQSGPELVKPGASVKISCKASGYSFTDCIILWVKQSHGKGLEWIGKINPYFGTTTYNLKFKGKATLTVDKSSSTAHMQLNSLTSEDSAVYYCARKEAYPDAMDYWGQGTSVTVSS
VL: DAVMTQTPLSLPVSLGDQASISCRSSQSLVHSNGDTYLHWYLQKPGQSPQLLIYKVSNRFSGVPDRFSGSGSGTDFTLKLSRVEAEDLGVYFCSQSTHVPYTFGGGTKLEIK

Assays:
[1] = tested on: J77.50.3 cells; assay: IL-2 induction in J77.50.3 lines expressing ICAM-R variants; type: cell-based, human; settings: for IL-2 Induction (Fold Stimulation): repeated experiments, Vector 0.52; for fold increase of IL-2 released (ICR-1.1 plus OKT3 divided by OKT3 alone): vector control 0.7 fold
Procedure: This dose of antibody alone provides minimal signalling for IL-2 release. The OKT3 treatment was removed and replaced with buffer alone or anti-ICAM-R (ICR-1.1) (10 ug/ml in PBS-D) and incubated at 37° C. for at least 2 hours. Monoclonal antibody coating was done in replicates of two or more wells and pooled to provide sufficient quantities of conditioned media for ELISA and/or bioassay. Two hundred fifty thousand Jurkat cells or transfectants thereof, were placed into antibody coated wells or buffer coated negative control wells in 0.1 ml of RPMI complete medium. Following incubation of about 16-24 hrs at 37° C. in a humidified atmosphere containing 5% CO2, the medium was transferred to a fresh 96 well round bottom plate, spun to pellet cells carried over and transferred to a fresh plate. Samples were frozen and stored at −70° C. IL-2 ELISAs were performed using commercially available kits (Biosource Intl. Co., Carmarille, Calif.) by making serial dilutions of the samples.
Experiments were performed using two independently isolated cell lines for each plasmid construct or the vector alone. Stable lines expressing similar levels of ICAM-R variants, as determined by indirect flow cytometry, were chosen for functional studies. Cells were costimulated with plate immobilized monoclonal antibodies ICR-1.1 and OKT3, and IL-2 release from the lines was quantitated by ELISA as previously described in Example 25C. Results were expressed as fold increase of IL-2 released from cells plated onto co-immobilized ICR-1.1 (10 μg/ml) plus OKt3 (1 μg/ml) divided by release from OKT3 ([…]) alone. The full length ICAM-R protein (haFL) gave 3.1 fold induction. The deletions gave the following fold inductions: haCTΔ505 induction was 1.5 fold, haCTΔ493 induction was 1.3 fold, haCTΔ484 was 0.8 fold. Vector control induction was 0.7 fold. […] In addition, removal of the residues 505-518 leads to the most significant reduction in co-stimulatory responsiveness. This implies that residues 505-518 play a relatively larger role in the response as compared to residues 484-505.

[2] = tested on: J77.50.3 cell lines; assay: ICR-1.1 induced aggregation of J77.50.3 lines; type: cell-based, human; settings: for ICR-1.1 induced aggregation: ICR-1.1 10 μg/ml, 1 and 24 hours; for Percent Aggregation: repeated experiments, Vector 17
Procedure: One of these monoclonal antibodies (ICR-1.1) was used to induce aggregation of the J77.50.3 cell lines expressing either full length ICAM-R (haFL) or carboxy terminal variants of ICAM-R. ICR-1.1 was added to 200,000 cells at 10 μg/ml in 96 well plates and incubated 37° C. At 1 and 24 hours after incubation the wells were visually screened for aggregates.

[3] = tested on: J77.50.3 cell lines; assay: Cell spreading on ICR-1.1 coated plastic; type: cell-based, human; settings: 20 minutes at 37° C.
Procedure: To ascertain additional functional consequences of ICAM-R carboxyl terminal deletions, the Jurkat cell lines expressing the. ICAM-R variants described above were tested for the ability to adhere and spread on antibody coated plastic or to undergo antibody-mediated aggregation. Bacterial petri plates were coated with 50 μl drops of ICR-1.1 or w6/32 (10 μg/ml) (anti-MHC class I isotype matched control monoclonal antibody) in PBS for 120 minutes at 37° C. The plastic was rinsed twice prior to spotting 50 μl drops of J77.50.3 cell lines. Duplicate cell lines expressing these proteins at equivalent levels were tested. After 20 minutes at 37° C. the plate was flooded with 2% glutaraldehyde in PBS and incubated for 30 minutes to fix adherent cells. Fixed cells were rinsed twice with PBS and scored visually for the ability to flatten and spread. […] Weyrich et al., J. Clin. Invest., 95: 2297-2303 (1995) recently described the effect of a ICR-1.1 coated plastic surface on normal monocytes from peripheral blood. After two hours, these cells flattened down and spread with a similar overall morphology to that seen with the haFL expressing J77.50.3 cell line.

[4] = target: T1, baculovirus-produced soluble human ICAM-R; assay: ELISA binding of recombinant ICR-8.1 antibodies; settings: humanized/chimeric ICR-8.1 chain combinations, human IgG4/kappa

| Molecule | IL-2 Induction (Fold Stimulation) [1] | ICR-1.1 induced aggregation [2] | spreading on ICR-1.1 coated plastic [3] | Percent Aggregation [2] [%] | fold increase of IL-2 released (ICR-1.1 plus OKT3 divided by OKT3 alone) [1] | binding to ICAM-R (ELISA), recombinant ICR-8.1 antibodies [4] |
| --- | --- | --- | --- | --- | --- | --- |
| B1 | 4.9 Fold | aggregation competent | spread onto the ICR-1.1 coated plastic surface | – | – | – |
| B2 | 2.0 Fold | – | – | 61 | – | – |
| B3 | 1.6 Fold | aggregation competent | spread onto the ICR-1.1 coated plastic surface | – | – | – |
| B4 | ˜6 Fold | Neither ICAM-R mutation affected | Neither ICAM-R mutation affected | 60 | Neither ICAM-R mutation affected IL-2 secretion | – |
| B5 | 1.0 Fold | – | – | 64 | – | – |
| B6 | ˜6 Fold | Neither ICAM-R mutation affected | Neither ICAM-R mutation affected | 60 | Neither ICAM-R mutation affected IL-2 secretion | – |
| B7 | 1.8 Fold | incapable of forming inducible aggregates | incapable of flattening down onto the ICR-1.1 coated surface | – | – | – |
| B8 | 2.1 Fold | – | – | 15 | – | – |
| B9 | 2.9 Fold | – | – | 25 | – | – |
| B10 | 5.4 Fold | aggregation competent | spread onto the ICR-1.1 coated plastic surface | 55 | 3.1 fold | – |
| B11 | – | – | – | – | – | equivalence in binding to ICAM-R |
